# Where two headings read alike, the source gives them in different places. Numbered stars: 1 amine (or outer) side, 2 acyl side, 3 side chain; on linkers, the order of the positions; unused ones are H or OH. Square brackets hold non-standard residues; d marks the D form. Side chains are listed from the residue outwards. Ends that are not written are not given here. Peptide text beside a SMILES is read from it. * marks the point of attachment. C20 diacid = O=C(O)CCCCCCCCCCCCCCCCCCC(=O)*; γGlu = O=C(O)[C@H](CCC(=O)[*:2])N[*:1]; AEEA = NCCOCCOCC(=O)O; Aib = CC(C)(N)C(=O)O
# B1: SEQ ID NO: 222 (peptide)
# peptide: H[Aib]EGTFTSD[Aib]SRLLEGAALQRFIQWLV-NH2
# modifications: N-terminus assumed
# SMILES: CC[C@H](C)[C@H](NC(=O)[C@H](Cc1ccccc1)NC(=O)[C@H](CCCNC(=N)N)NC(=O)[C@H](CCC(N)=O)NC(=O)[C@H](CC(C)C)NC(=O)[C@H](C)NC(=O)[C@H](C)NC(=O)CNC(=O)[C@H](CCC(=O)O)NC(=O)[C@H](CC(C)C)NC(=O)[C@H](CC(C)C)NC(=O)[C@H](CCCNC(=N)N)NC(=O)[C@H](CO)NC(=O)C(C)(C)NC(=O)[C@H](CC(=O)O)NC(=O)[C@H](CO)NC(=O)[C@@H](NC(=O)[C@H](Cc1ccccc1)NC(=O)[C@@H](NC(=O)CNC(=O)[C@H](CCC(=O)O)NC(=O)C(C)(C)NC(=O)[C@@H](N)Cc1c[nH]cn1)[C@@H](C)O)[C@@H](C)O)C(=O)N[C@@H](CCC(N)=O)C(=O)N[C@@H](Cc1c[nH]c2ccccc12)C(=O)N[C@@H](CC(C)C)C(=O)N[C@H](C(N)=O)C(C)C
# B2: SEQ ID NO: 218 (peptide)
# peptide: H[Aib]EGTFTSDISRLLEGAALQRFIQWLV-NH2
# modifications: N-terminus assumed
# SMILES: CC[C@H](C)[C@H](NC(=O)[C@H](Cc1ccccc1)NC(=O)[C@H](CCCNC(=N)N)NC(=O)[C@H](CCC(N)=O)NC(=O)[C@H](CC(C)C)NC(=O)[C@H](C)NC(=O)[C@H](C)NC(=O)CNC(=O)[C@H](CCC(=O)O)NC(=O)[C@H](CC(C)C)NC(=O)[C@H](CC(C)C)NC(=O)[C@H](CCCNC(=N)N)NC(=O)[C@H](CO)NC(=O)[C@@H](NC(=O)[C@H](CC(=O)O)NC(=O)[C@H](CO)NC(=O)[C@@H](NC(=O)[C@H](Cc1ccccc1)NC(=O)[C@@H](NC(=O)CNC(=O)[C@H](CCC(=O)O)NC(=O)C(C)(C)NC(=O)[C@@H](N)Cc1c[nH]cn1)[C@@H](C)O)[C@@H](C)O)[C@@H](C)CC)C(=O)N[C@@H](CCC(N)=O)C(=O)N[C@@H](Cc1c[nH]c2ccccc12)C(=O)N[C@@H](CC(C)C)C(=O)N[C@H](C(N)=O)C(C)C
# B3: SEQ ID NO: 221 (peptide)
# peptide: H[Aib]EGTFTSDPSRLLEGAALQRFIQWLV-NH2
# modifications: N-terminus assumed
# SMILES: CC[C@H](C)[C@H](NC(=O)[C@H](Cc1ccccc1)NC(=O)[C@H](CCCNC(=N)N)NC(=O)[C@H](CCC(N)=O)NC(=O)[C@H](CC(C)C)NC(=O)[C@H](C)NC(=O)[C@H](C)NC(=O)CNC(=O)[C@H](CCC(=O)O)NC(=O)[C@H](CC(C)C)NC(=O)[C@H](CC(C)C)NC(=O)[C@H](CCCNC(=N)N)NC(=O)[C@H](CO)NC(=O)[C@@H]1CCCN1C(=O)[C@H](CC(=O)O)NC(=O)[C@H](CO)NC(=O)[C@@H](NC(=O)[C@H](Cc1ccccc1)NC(=O)[C@@H](NC(=O)CNC(=O)[C@H](CCC(=O)O)NC(=O)C(C)(C)NC(=O)[C@@H](N)Cc1c[nH]cn1)[C@@H](C)O)[C@@H](C)O)C(=O)N[C@@H](CCC(N)=O)C(=O)N[C@@H](Cc1c[nH]c2ccccc12)C(=O)N[C@@H](CC(C)C)C(=O)N[C@H](C(N)=O)C(C)C
# B4: SEQ ID NO: 220 (peptide)
# peptide: H[Aib]EGTFTSDVSRLLEGAALQRFIQWLV-NH2
# modifications: N-terminus assumed
# SMILES: CC[C@H](C)[C@H](NC(=O)[C@H](Cc1ccccc1)NC(=O)[C@H](CCCNC(=N)N)NC(=O)[C@H](CCC(N)=O)NC(=O)[C@H](CC(C)C)NC(=O)[C@H](C)NC(=O)[C@H](C)NC(=O)CNC(=O)[C@H](CCC(=O)O)NC(=O)[C@H](CC(C)C)NC(=O)[C@H](CC(C)C)NC(=O)[C@H](CCCNC(=N)N)NC(=O)[C@H](CO)NC(=O)[C@@H](NC(=O)[C@H](CC(=O)O)NC(=O)[C@H](CO)NC(=O)[C@@H](NC(=O)[C@H](Cc1ccccc1)NC(=O)[C@@H](NC(=O)CNC(=O)[C@H](CCC(=O)O)NC(=O)C(C)(C)NC(=O)[C@@H](N)Cc1c[nH]cn1)[C@@H](C)O)[C@@H](C)O)C(C)C)C(=O)N[C@@H](CCC(N)=O)C(=O)N[C@@H](Cc1c[nH]c2ccccc12)C(=O)N[C@@H](CC(C)C)C(=O)N[C@H](C(N)=O)C(C)C
# B5: SEQ ID NO: 216 (GUB06-046) (peptide)
# peptide: H[Aib]EGTFTSDLSRLLEGAALQRFIQWLV-NH2
# modifications: N-terminus assumed
# SMILES: CC[C@H](C)[C@H](NC(=O)[C@H](Cc1ccccc1)NC(=O)[C@H](CCCNC(=N)N)NC(=O)[C@H](CCC(N)=O)NC(=O)[C@H](CC(C)C)NC(=O)[C@H](C)NC(=O)[C@H](C)NC(=O)CNC(=O)[C@H](CCC(=O)O)NC(=O)[C@H](CC(C)C)NC(=O)[C@H](CC(C)C)NC(=O)[C@H](CCCNC(=N)N)NC(=O)[C@H](CO)NC(=O)[C@H](CC(C)C)NC(=O)[C@H](CC(=O)O)NC(=O)[C@H](CO)NC(=O)[C@@H](NC(=O)[C@H](Cc1ccccc1)NC(=O)[C@@H](NC(=O)CNC(=O)[C@H](CCC(=O)O)NC(=O)C(C)(C)NC(=O)[C@@H](N)Cc1c[nH]cn1)[C@@H](C)O)[C@@H](C)O)C(=O)N[C@@H](CCC(N)=O)C(=O)N[C@@H](Cc1c[nH]c2ccccc12)C(=O)N[C@@H](CC(C)C)C(=O)N[C@H](C(N)=O)C(C)C
# Columns and labels:
# [1] = Turbidity of crude library peptides (absorbance at 600 nm); assay type: physicochemical; details: Physical stability of peptides
# How it was run: (§1)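 Fibril formation is scored as average ThT fluorescence from duplicate samples monitored for 72 h at 40° C with shaking stress. Turbidity is the absorbance at 600 nm taken before heating. Peptide concentration was 267 μM at pH 4.0 or pH 7.0.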
# [2] = Fibril formation of crude library peptides (Thioflavin T); assay type: physicochemical; set-up: key: average ThT fluorescence emission at 480 nm (ex 450 nm), raw units; details: Physical stability of peptides
# How it was run: as §1
# [3] = Thioflavin T fibril formation assay of purified peptides; assay type: physicochemical; details: 267 μM, phosphate buffer pH 7.0, 96 h at 40° C.
# Method: Thioflavin T fibril formation assay: Peptides are dissolved as 267 μM in 50 mM phosphate buffer pH 7.0 for 2 h at room temperature on a rocking table. The samples were then divided into three replicates of 80 μl/well and mixed with 2 μl/well Thioflavin T (ThT) to a final concentration of 4 μM ThT in a black 384 well microplate with a clear bottom (Greiner #781096). The plate is inserted in a CLARIOstar Plus microplate reader (BMG Labtech) and fibril formation is measured as an increase in fluorescence emission at 480 nm (excitation at 450 nm) during 96 h at 40° C. with cycles of 5 min rest and 5 min linear shaking at 700 rpm.
# [4] = Solubility of purified peptides; assay type: physicochemical; details: 100 mM phosphate buffer, target pH 7.0, target approximately 10 mg/mL
# Method: Solubility was tested in the following vehicles: 100 mM phosphate buffer facilitating a target pH of 7.0. Samples were directly dissolved in Mini-UniPrep Syringeless Filter 0.45 μm unit (Whatman). For the desired concentration, such as a concentration of approximately 10 mg/mL, 1050 nmol of peptide was dissolved in 400 μL vehicle. Samples were incubated for at least 1 h at room temperature on a rocking table. The pH was measured and adjusted. Samples were left on the rocking table for an additional hour before a second pH measurement and adjustment. Visual inspection was performed and noted before the filter was pushed. The concentration of peptide in the filtrate was determined using CAD (Charged Aerosol Detection), double determination was done for each sample. The measured concentration was reported in μM. Furthermore, the pH of the filtrate was measured and reported. Peptides with a measured concentration within +/−20% of target concentration are considered fully soluble.
# [5] = molecular target: GLP1R (Homo sapiens, UniProt P43220); test: hGLP1R potency, cAMP accumulation in CHO-K1 cells stably overexpressing hGLP1R; assay type: cell-based; set-up: host or cells: CHO-K1
# Sequence of GLP1R (P43220 24-463): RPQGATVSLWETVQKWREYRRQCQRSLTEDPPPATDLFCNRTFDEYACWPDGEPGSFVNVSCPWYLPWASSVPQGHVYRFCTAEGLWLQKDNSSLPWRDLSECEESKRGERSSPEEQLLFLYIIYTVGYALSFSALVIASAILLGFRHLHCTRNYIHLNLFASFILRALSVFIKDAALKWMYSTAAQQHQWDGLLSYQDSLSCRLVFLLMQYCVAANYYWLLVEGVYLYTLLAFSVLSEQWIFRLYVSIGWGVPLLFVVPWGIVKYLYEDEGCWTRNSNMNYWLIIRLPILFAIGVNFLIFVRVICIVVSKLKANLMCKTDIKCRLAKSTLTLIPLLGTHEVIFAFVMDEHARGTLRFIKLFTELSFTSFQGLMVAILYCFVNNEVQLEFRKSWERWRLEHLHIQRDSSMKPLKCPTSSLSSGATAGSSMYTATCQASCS
# How it was run: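 In the presence of 0.5 mM IBMX, compounds stimulated the cells for 30 minutes at room temperature. Accumulated cAMP was then detected by TR-FRET, with EC50 values fitted by variable-slope nonlinear regression.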
# [6] = molecular target: SCTR (Homo sapiens, UniProt P47872); test: hSCTR potency, cAMP accumulation in CHO-K1 cells stably overexpressing hSCTR; assay type: cell-based; set-up: alternatively Euroscreen ES-712-AF; FAST-0161L; host or cells: CHO-K1
# Sequence of SCTR (P47872 23-440): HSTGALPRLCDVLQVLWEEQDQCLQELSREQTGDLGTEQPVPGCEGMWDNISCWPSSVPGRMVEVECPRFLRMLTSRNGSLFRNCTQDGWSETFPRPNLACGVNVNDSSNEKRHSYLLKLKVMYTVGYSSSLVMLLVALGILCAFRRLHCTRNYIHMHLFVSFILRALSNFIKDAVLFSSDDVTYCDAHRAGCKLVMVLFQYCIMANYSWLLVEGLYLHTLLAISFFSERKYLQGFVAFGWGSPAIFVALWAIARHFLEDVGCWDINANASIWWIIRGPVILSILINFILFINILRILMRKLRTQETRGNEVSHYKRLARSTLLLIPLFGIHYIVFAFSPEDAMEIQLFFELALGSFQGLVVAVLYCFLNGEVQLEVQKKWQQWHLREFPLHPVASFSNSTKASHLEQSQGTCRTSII
# How it was run: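 In this Gs cAMP assay, stably transfected CHO-K1 hSCTR cells were stimulated at room temperature for 30 min in IBMX-containing buffer. Time-resolved FRET gave the signal. Replicates were increased when the top concentration changed or EC50 values differed 5-fold.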
# [7] = molecular target: T1, human GLP-1 receptor (hGLP1R) (human, UniProt P43220 24-463); test: cell-based or functional assay
# [8] = molecular target: T2, human secretin receptor (hSCTR) (human, UniProt P47872 23-440); test: cell-based or functional assay
# T2 sequence (P47872 23-440): as above
# [9] = molecular target: T1, human GLP-1 receptor (hGLP1R); test: cell-based or functional assay; remark: listed apart in the source
# [10] = molecular target: T2, human secretin receptor (hSCTR); test: cell-based or functional assay; remark: listed apart in the source
molecule,measurement,setting,value
CC(C)C[C@H](NC(=O)[C@H](Cc1ccccc1)NC(=O)[C@H](CCCNC(=N)N)NC(=O)[C@H](CCC(N)=O)NC(=O)[C@H](CC(C)C)NC(=O)C(C)(C)NC(=O)[C@H](C)NC(=O)[C@H](CCC(=O)O)NC(=O)[C@H](CCC(=O)O)NC(=O)[C@H](CCCCNC(=O)COCCOCCNC(=O)COCCOCCNC(=O)CC[C@H](NC(=O)CCCCCCCCCCCCCCCCCCC(=O)O)C(=O)O)NC(=O)[C@H](CC(C)C)NC(=O)[C@H](CCC(=O)O)NC(=O)[C@H](CO)NC(=O)[C@@H](NC(=O)[C@H](CC(=O)O)NC(=O)[C@H](CO)NC(=O)[C@@H](NC(=O)[C@H](Cc1ccccc1)NC(=O)[C@@H](NC(=O)CNC(=O)[C@H](CCC(=O)O)NC(=O)C(C)(C)NC(=O)[C@@H](N)Cc1c[nH]cn1)[C@@H](C)O)[C@@H](C)O)C(C)C)C(=O)N[C@@H](CCC(=O)O)C(=O)N[C@@H](Cc1c[nH]cn1)C(=O)N[C@@H](CC(C)C)C(=O)N[C@H](C(N)=O)C(C)C [compound 168] (H-H[Aib]EGTFTSDVSELK([AEEA-AEEA-γGlu-C20 diacid])EEA[Aib]LQRFLEHLV-NH2),Turbidity (pH 7),[1],0.08
same,Fibril formation,[2],2998
same,Fibril formation,[3],No
same,solubility,[4],9800 µg/mL
same,Selectivity,"[5]; SCTR EC50/GLP1R EC50 ratio, purified peptides",8333
same,EC50,"[5]; cAMP accumulation, CHO-K1 cells overexpressing hGLP1R, read-out: hGLP1R pEC50 (converted)",0.00631 nM
same,SCTR EC50/GLP1R EC50 ratio,"[5]; selectivity for hGLP1R over hSCTR, cAMP accumulation in CHO-K1 cells",6853
same,EC50,"[6]; cAMP accumulation, CHO-K1 cells overexpressing hSCTR, read-out: hSCTR pEC50 (converted)",50.1 nM
same,EC50,"[6]; purified peptides, read-out: hSCTR EC50",100 nM
B1,pEC50 hGLPR1,[7],9.9 -log M
same,pEC50 hSCTR,[8],6.5 -log M
B2,pEC50 hGLPR1,[7],10.4 -log M
same,pEC50 hSCTR,[8],7.8 -log M
B3,pEC50 hGLPR1,[7],8.6 -log M
same,pEC50 hSCTR,[8],5.3 -log M
B4,pEC50 hGLPR1,[7],10.2 -log M
same,pEC50 hSCTR,[8],7.2 -log M
B5,pEC50 hGLPR1,[7],10.4 -log M
same,pEC50 hSCTR,[8],9.3 -log M
same,pEC50 hGLPR1,[9],10.4 -log M
same,pEC50 hSCTR,[10],9.3 -log M
